# Data as given in article PMC8054141.
# Biological target: Cerulean-ICDI1.4
# Assay: FRET two-hybrid assay
# Conditions: parent: est. 26 µM^-1; read off a plot
row,Substance,Ka
1,Venus-IQ-A1.3 AKN[1629]AAA,22 µM⁻¹
2,Venus-IQ-A1.3 TTI[1632]AAA,54 µM⁻¹
3,Venus-IQ-A1.3 HDI[1644]AAA,55 µM⁻¹
4,Venus-IQ-A1.3 ALQ[1635]AAA,8.5 µM⁻¹
5,Venus-IQ-A1.3 KYP[1626]AAA,25 µM⁻¹
6,Venus-IQ-A1.3 GPE[1647]AAA,44 µM⁻¹
7,Venus-IQ-A1.3 RTL[1641]AAA,7 µM⁻¹
8,Venus-IQ-A1.3 LVG[1623]AAA,27 µM⁻¹
9,Venus-IQ-A1.3 IRR[1650]AAA,8 µM⁻¹
10,Venus-IQ-A1.3 AGL[1638]AAA,7.5 µM⁻¹
11,Venus-IQ-A1.3 AIS[1653]AAA,9.5 µM⁻¹

# Same assay, conditions: parent: est. 21; read off a plot
row,Substance,Ka
1,Venus-PreIQ3-IQ-A1.3 K[+11]A,15 µM⁻¹
2,Venus-PreIQ3-IQ-A1.3 T[-10]A,37 µM⁻¹
3,Venus-PreIQ3-IQ-A1.3 V[-9]A,11 µM⁻¹
4,Venus-PreIQ3-IQ-A1.3 G[-8]A,32 µM⁻¹
5,Venus-PreIQ3-IQ-A1.3 R[+5]A,16 µM⁻¹
6,Venus-PreIQ3-IQ-A1.3 D[+2]A,18 µM⁻¹
7,Venus-PreIQ3-IQ-A1.3 D[-13]A,28 µM⁻¹
8,Venus-PreIQ3-IQ-A1.3 Q[+1]A,24 µM⁻¹
9,Venus-PreIQ3-IQ-A1.3 P[-18]A,22 µM⁻¹
10,Venus-PreIQ3-IQ-A1.3 F[+7]A,15 µM⁻¹
11,Venus-PreIQ3-IQ-A1.3 F[+4]A,3.2 µM⁻¹
12,Venus-PreIQ3-IQ-A1.3 A[-16]T,18 µM⁻¹
13,Venus-PreIQ3-IQ-A1.3 Y[-5]A,4.7 µM⁻¹
14,Venus-PreIQ3-IQ-A1.3 K[+9]A,15 µM⁻¹
15,Venus-PreIQ3-IQ-A1.3 Y[+3]A,25 µM⁻¹
16,Venus-PreIQ3-IQ-A1.3 D[-14]A,14 µM⁻¹
17,Venus-PreIQ3-IQ-A1.3 L[-1]A,7 µM⁻¹
18,Venus-PreIQ3-IQ-A1.3 R[+10]A,15 µM⁻¹
19,Venus-PreIQ3-IQ-A1.3 T[-3]A,34 µM⁻¹
20,Venus-PreIQ3-IQ-A1.3 I[0]A,24 µM⁻¹
21,Venus-PreIQ3-IQ-A1.3 G[-15]A,22 µM⁻¹
22,Venus-PreIQ3-IQ-A1.3 A[-4]T,9 µM⁻¹
23,Venus-PreIQ3-IQ-A1.3 E[-12]A,37 µM⁻¹
24,Venus-PreIQ3-IQ-A1.3 K[+6]A,15 µM⁻¹
25,Venus-PreIQ3-IQ-A1.3 V[-11]A,15 µM⁻¹
26,Venus-PreIQ3-IQ-A1.3 P[-17]A,16 µM⁻¹
27,Venus-PreIQ3-IQ-A1.3 K[+8]A,15 µM⁻¹
28,Venus-PreIQ3-IQ-A1.3 K[-7]A,14 µM⁻¹
29,Venus-PreIQ3-IQ-A1.3 F[-6]A,12 µM⁻¹

# Biological target: Venus-PreIQ3-IQ-A1.3
# Assay: FRET two-hybrid assay
# Conditions: parent: est. 22; read off a plot
row,Substance,Ka
1,Cerulean-ICDI1.4 KRG[1880]AAA,6.5 µM⁻¹
2,Cerulean-ICDI1.4 HVP[1868]AAA,42 µM⁻¹
3,Cerulean-ICDI1.4 LGD[1956]AAA,50 µM⁻¹
4,Cerulean-ICDI1.4 EED[1953]AAA,40 µM⁻¹
5,Cerulean-ICDI1.4 EAV[1889]AAA,37 µM⁻¹
6,Cerulean-ICDI1.4 EES[1944]AAA,38 µM⁻¹
7,Cerulean-ICDI1.4 SHG[1877]AAA,61 µM⁻¹
8,Cerulean-ICDI1.4 ILS[1947]AAA,37 µM⁻¹
9,Cerulean-ICDI1.4 ALA[1908]AAA,38 µM⁻¹
10,Cerulean-ICDI1.4 SAD[1883]AAA,30 µM⁻¹
11,Cerulean-ICDI1.4 RFD[1950]AAA,51 µM⁻¹
12,Cerulean-ICDI1.4 EMA[1959]AAA,26 µM⁻¹
13,Cerulean-ICDI1.4 ASD[1929]AAA,30 µM⁻¹
14,Cerulean-ICDI1.4 ACR[1917]AAA,14 µM⁻¹
15,Cerulean-ICDI1.4 CVH[1962]AAA,51 µM⁻¹
16,Cerulean-ICDI1.4 EGL[1895]AAA,6 µM⁻¹
17,Cerulean-ICDI1.4 SDP[1874]AAA,31 µM⁻¹
18,Cerulean-ICDI1.4 QGT[1935]AAA,56 µM⁻¹
19,Cerulean-ICDI1.4 GTH[1871]AAA,48 µM⁻¹
20,Cerulean-ICDI1.4 SSL[1938]AAA,46 µM⁻¹
21,Cerulean-ICDI1.4 DNA[1926]AAA,7 µM⁻¹
22,Cerulean-ICDI1.4 GLF[1898]AAA,3.5 µM⁻¹
